For assay [1], the target named is MsFcγRIα-EGFP (largemouth bass FcγRIα fused to EGFP, expressed on transfected HEK293 cells) (largemouth bass (Micropterus salmoides)). The assay can be described thus: flow cytometry on cells; MsFcγRIα-EGFP-transfected HEK293 cells in serum-free DMEM, 20 μg/mL purified MsIgM added for 12 h at 37 °C; bound MsIgM detected with anti-MsIgM mAb MM06H and Alexa Fluor 647 goat anti-mouse IgG; n = 3. On the technique in general: In flow cytometry, cells or beads pass a laser one at a time.

Assay [2] has the same target. The assay can be described thus: flow cytometry on cells; MsFcγRIα-EGFP-transfected HEK293 cells in serum-free DMEM, 20 μg/mL purified MsIgM added for 24 h at 37 °C; bound MsIgM detected with anti-MsIgM mAb MM06H and Alexa Fluor 647 goat anti-mouse IgG; n = 3.
The target is the same in assay [3]. The assay can be described thus: flow cytometry on cells; MsFcγRIα-EGFP-transfected HEK293 cells in serum-free DMEM, 20 μg/mL purified MsIgM added for 6 h at 37 °C; bound MsIgM detected with anti-MsIgM mAb MM06H and Alexa Fluor 647 goat anti-mouse IgG; n = 3.

Consider “largemouth bass IgM (MsIgM), purified from serum (natural protein)”, for which, in assay [1], the percent of MsFcγRIα-expressing HEK293 cells with MsIgM after 12 h incubation was determined as 26.3%. The substance also had a percent of MsFcγRIα-expressing HEK293 cells with MsIgM after 24 h incubation in assay [2] of 40.3%. The same substance displayed a percent of MsFcγRIα-expressing HEK293 cells with MsIgM after 6 h incubation in assay [3] of 19.7%.

The values are drawn from article PMC9699129.
